A short description of the data set: label from the status in PepcDB records.
As to “MKRLFLPLLGFLSLVLMCCNDNKESGTDSYDPNKPVTIDYFTPDTGRVAEKVIIIGNNFGNDKSAVTVLFTDNMEKENKAAVVGVDNTTIYCMAPRQAEGFNKITVKVNDQTVVADETFKYSVSENVSTIAGDFVQADGAGKDGSLAEATFGQMFGVACIDEQSGIVGQAWNNNSVRYISIDEDAVITIQSGPVVGKVAVSNDKTLAYGATINGANTVYVYKKSQAWVPSRLSDISSGTDVWAVALNGDNQWLYYVTANGRLGRIEVDNPTHNEILFEHNDFSGGPFAYIAYSAFEDCFYVTTDKNKILKVWVKEDGTHAYEQINQNNTGTTDGFLADEAKFQYLRGLTIDEDGNIFVCQGDNSHVIRKIAYDENMEKRYVTTVLGTSTVHGTDDGSPDIALFNGPQDISYDGNGGYWIAMRYEPALRKYSIE”, the protein production entry is listed as “failed”.
Under “MKRLIVSSSVVLFMFLCSITITSAENNSVKVAFIRHHNLWIKVDGKEIQITKGEYITGPKWSYDGEWLAYVKGKKQSILELYRLKDGKKVTPFHSEASNYQWSPTENIIAFIFTGTLNTFDVEKKNADFENVSAGVGDYAWYPDGKNFLVSSEAHLLPTGWTGAQLYEVQKDAHMNPHKMKHLYALPNEHDDFLALVASGFKWSPDQKWISFLAVPTASWSADSNTLCLVRADGSRFEKVDQMLLNAQWFQWAPSKNILAYIEGSGRVALENKHLKVKELPALQQNIFTPKGYVDWDFVWKNDRVIIVSRAKEAGIETPPEKRPLPSLYEVDSTSNAQHQITKKTNKQGDYHPIFMKKSNQLIWIRSDRKKADVWLAHKDRKQEKKWIENIDVPAWYYEKWNWGNVISVKEE” stands “failed”; under “MKRMHNPAHPGEVLREYLGELTVTNAAAKLGVSRVALSRILNGTNGISADMALRLEDALGTSAEMWAAMQFKYDLWVASQQPRPKITRLHV”, “failed”; under “MKRPHGYQITSLRADKYGGYYAANFVGNEILYFDVNNNVNALVKDGFSYLKSPYDVIEANNLLYVTLYSSDEIGVYDKVLGVKRKSIGNKGTKDGELLAPQYMAIDKRNYIYVSEWGNKRVSKFGLEGDFILHFGSRTSGYKGLLGPTGVTYLNENIYVADSLRNTIEVFDTSGNHLYSVFTSIEGIEGLSSDFVGNNVIVSSKDGVYKYSIAKKTITKILKADKMNSKISSSILDANNQMIVSDFNNAKVSVYKSDASLYDSLEHHHHHH”, “not failed”.
Turning to “MKRQYYIGISLFITIIILVLDQITKFIIASSMKVGDSFEVIPNFLNITSHRNDGAAWGILSGKMSFFFIITIIILVVLIVFYIKEAKNNLLMQIAISLLFAGALGNFIDRVLHGEVVDFVDTYIFGYNFPIFNVADSSLTIGVLLIIIALLTDMKKEE”, the protein production result is “failed”.
Under “MKRRLLCALLASTLAQPLTVRADLPDLGEISDASLSLSDEARIGRDALRAMREAGDVVDDPEVNAYLNDVGGRLAAAAAVPGVRFTYFCVADAGINAFAMPGGYVGINIGLMLASQSEGELAAVLGHETAHVAQRHIARMQAANSAASPLLLLGTIVAAALAAKAGSGDGAMGAVSAGMGLSISRQLAFSRDFEREADRVGMQYMSAAGFDVRNMAAFFQRLEQASRYSDNTAYAFLRTHPVTLERISEAQNRALDYPVRMRADSVDYLLVREKLRVLTLSPEEAVSHYSSALQRGLYLNEGANWYGLARAKLLQHDRAGASEALAKARAKLPDNPMLYGLEVEIARDGRDWAAAARAARNGLSAFPRSVSLQLAQLDVALDGGDRKAAQAQLRQLLDSRRDDPALYRREAKLYADKDPLRYHAALGNAFYYEQRYGAALEQYQLAGKAKGDDFYLRSMLEARLREVEKLAKEERKAARNLEHHHHHH” stands “not failed”; under “MKRSIAPLLVCPACLPKERPLELTATAEADGDITAGHLSCKGCRRRFPIRDGIAVLLPDPDTGPSGGQWKYEEQGTLATYLWSHFADLAGDPEAGDAYASWASALAGNAETSLDAGCAVGRLTFELGQRSGLAVGFDLSLTFIRAARQLARERQIRFSLPREGNLRDEFRLTLPDCWRTDEVEFVVADALAIPFARETFDRTASLNLIDRVSYPLAHLYEMNRVARLSGASFLLSDPFSWSTANAPEEKWLGGTESGPYSGRGMDNVKAILGGKEAIIAPPWTVAREGSVWWKIRSHRNHFELIRSEFLVAERLEHHHHHH”, “failed”.
Turning to “MKRSLLACAMSCMMLTVSAHSDFDVRNVDSQFHVPEIGGGVGLIDQQKERQIGEKVFREIQKQMPVVHDPWLQEQYSQIFLRVLAQTSITQPVGLVIIKDPQINAFAVPGGLFALNTGLIANARNIDEVAGVMAHEVAHVTQRHYSRSQEAFKGQGLLALAGILVGAAVATTSNADVGSAVMLGTQAALMDRQLTYSRNQEREADRIGMQYMYAAGYNPQSMADFFETMQRSRVGSSFMPDFWMTHPLTTERMSEARLRANQLPKVETKLYDPNFQLLKWYTLAVSDPSSEKILENVVKQGNKEAQLALGAYYVGQGDFVKAQKQLDDIKSQFNENTLYCLIQTNIYLGQNELDQAYSSIVNIQRAMPESRALAYKLAEVMILQGKAGDTLQLIQPFVNRNPRDLEGWQLMQQASSIDRISPVQTVNTLRYRAEVQFWSGNEENAIKSLLHAQRLAKGNESLSARIDSRLKQMQSDYTMKI”, the protein production entry is on record as “failed”.
Take “MKRVFVFQDFKSQKFWSIDVRGTDVIVNYGKLGTDGQTQVKNFSSAGEAEKAAGKLIAEKTKKGYVETLEEVAKEMKVEAKKYALSYDEAEEGVNLMDKILKDKKLPSLKQITIGCWGYEGEDCSDIADGIVENKEKFAHFEGLFWGDIDFEEQEISWIEQVDLSPVLDAMPLLNNLKIKGTNNLSIGKKPRPNLKSLEIISGGLPDSVVEDILGSDLPNLEKLVLYVGVEDYGFDGDMNVFRPLFSKDRFPNLKWLGIVDAEEQNVVVEMFLESDILPQLETMDISAGVLTDEGARLLLDHVDKIKHLKFINMKYNYLSDEMKKELQKSLPMKIDVSDSQEYDDDYSYPMITELEHHHHHH”: the protein production entry is “not failed”.
Regarding “MKRVNQNLYQLLRRIYWRLPLPEETKELLVGFARRFLRGMKKALAEPVTTASSASVSREKILQEYANQILAIPRKSGNEYVEISSSSYQRKEGDAKILAYYLPQFHPTKENDMWWGKGVTEWNNVSRAMPQYVGHYQPRLPGELGYYDLRILDNMRRQVELAQMYGIYGFCFYYYWFDGKRLLDKPLDMFLEAKTIDFPFSLCWANESWTRRFDGSCGEILVKQSETVESYIAFINSVVPYMRDSRYIRMNGKPIFTIYRPSFIPECASTITAWREHCVKAGIGDIYIIGIKEHTWDVNLIELGFDAQSEFHPGTLFKHCVDISSQINYMQDFGGIVLDYRDIVEHKKYFLYNHPKLHRAAMPMWDNSARRDNKGMIFEGASPDLYERWLTDILLEAKNREDLEDHYIFINAWNEWGEGAYLEPDKKYGYAYLNATRQAIEGVRS”, the protein production result was “failed”.
Consider “MKRYIYLFVSVFTLVMASCQQEETSNGKTGFLQFSVEKNTSTILVPATRAEELPIALQVVDRAGTVVKETDDWHNWTSTPLELPLGSYTINAFSKGVDVGTAGFDEPYYWGQSEVTVVPKVNQSVNIECRLANVKVTVNYSADVKKYFSKLNCSVGNSSGKLVFGKDETRSGYFAVDKLNISLALTNTDGRSFVFESEPITDVKERQHYRINYTMKANGAIGGVSVTLDPSTKEYNVNIAIPKESNPSVNVWSDFADVTLPLPDGVVTKECKYRISGTEDWNTVSNVEQADGKLVATITGLIPGTEYDFCFAINGVNGKITTATTELQKQLENGSFDEWNQNGKTWFPGTAAEASAKNSYWDTGNVGAATMSKNPSIGESNDVHTVGGKSAKLSSQFVGMFGIGKFAAGNIYIGRYMETYTSPMGARIRFGREFTSRPTQLKGWYKYTRGTSIDRGDHNVEELKNSGGDKCAIYIALTDNEGLVDDNGVKTAYEVNNNKEGSPTRYTVDLSEANKDVIAYGSITDEESKGSFDESGNVVWKQFTIDLKYRDLTRKPKYIIVVASASKYGDFFTGSESSVMLIDDFELVYGTPVTAN”, for which the protein production entry is given as “failed”.
Take “MKRYPRDMRGHGPTPPDAAWPGGARIAVSIVLNYEEGGENCLLHGDAQSEAFLSDIAGAQPWPGQRHWNMESIYDYGARAGFWRLHRLFTGLNIPVTVYGVATALARSPEQVAAMKSAGWEIASHGLKWVEHRDMPEEEERRQIAEAIRLHAEVVGERPRGWYTGRCSVNTVRLTAEEGGFDWISDTYDDDQPYWLETGTRDQLVIPYTLEANDMRFATAPGYIEGEQFFTYLRDSFDTLYAEGCAGQAKMFSIGLHCRLIGRPGKIAGLKRFLDYARTHERVWFPCRGDIARHWHETHPHRRRPRPSRMDRESFVAHFGGIYEHSPWIAERAFELELGPAHDSPAGLANALARIFRSATPAERLSVLKAHPDLAGKLAQARRLTASSSFEQSSAGLDALTDAERAEFATLNADYVAKHGFPFIIAVRDHDKAGILAAFETRLAHDSATEFATACRQVERIAELRLQDMLKLEHHHHHH”: the protein production result was “failed”.
Under “MKSAPAVISVAFVLGLLTWLLLHGLNINSARYDSQLRALGDFTRFERGMTREVLTARAGLSRNYDALVHMVNAYDDALTRLRDTAGLDAEQTRVIDVLSARADRQESLIERFKSRNALLQNSFAYFGLFSDRLAASESRPVVTAASALAAAMLRLTLDTSDAAARQVEDRLEELAQLQAPPAETDSVHALLLHGQMLHDLLPDIDTILKTLVAESNNREQDAMLAVILKRQLAARASARKTRLLQYITSLLLLSGIIYFGMLLRKRAMALRRRAAFEHVIANISMLFINSSNDGIDADVEMALRQLAGCIGADRAYFACVVGTTMHTYRWSRDGIAFEPGWPERVLSLAPRLDGGEDGIVYIPRMNASHPHDAMLTEAGVSGWLCIMAAYGSRDGILGFDAVRGGALTYWSEVSLFRMAFDAIGNAIRRARLEGEKERLQASLQQARRMETIGTFASGIAHNFNNIVGAILGHAEMADARVAPGSRPAASLAEIRRAGERARELVEQILGFGRRGEGRRERVCLRTLVDETRSLLAASLPSHVTFEVDETADIAIVTGEPAQLQQVILNLCNNAAQAMKEPGRIELRIKVHDLVKPLSIGRSEVGPGRFTVISVADPGPGMDEATLERIFEPFFTTRPDGNGLGLATVREIVEQHGGAVAVQSRPDAGTRFDIWLPSGEPVEPQPAQHGSDPAFLGAGETVLVIDTDRRRLLRYEEILAALGYEPVGFTGLAEAIAACRAAHARFDAALVCHLPGGSSLDLAAALHDAAPALPIILAAPSTRDLAMPSLKTSGITELVHHPLASAELASALARSLVSSATSGRLRRAAGAS” stands “failed”; under “MKSGIGVGLKKEHLKIQINNSGVLTITGGCPVDQTKTIRFMKETKVAKDCKRNEIRAKFSKGVLYVTMPKTIPIAAGLSVSLKGATPQHQTPKTDEGMRNVANCSSEFYSKFGSLKQRLWRKTVVEGVAAVVVVAAAVLGVVKAYQYFMASPV”, “failed”; under “MKSHKMMGGGISMHYITACLKIISDKDLNEIMKEFKKLEEETNKEEGCITFHAYPLEPSERKIMLWEIWENEEAVKIHFTKKHTIDVQKQELTEVEWLMKSNVND”, “not failed”.
Under “MKSIRRGDGLNVVPFIDIMLVLLAIVLSISTFIAQGKIKVSLPNAKNAEKSQPNDQKVVVISVDEHDNIFVDDKPMNLEALSAVVKQTDPKTLIDLKSDKSSRFETFISIMDILKEHNHENFSISTQAQ” stands “failed”; under “MKSITQASFMKGIMFTFTIAIISYILAKFPILHTIGALAIAIIFAMIYRQVIGYPEHIRPGITFASKRLLKFAIILYGLKLNMGDILGKGWKLLLIDIIVIIFSISLTLLLNQIIKGNKDISILLGIGTGVCGAAAIAATAPILKSKEKDIAISVGIIALVGTIFALIYTAIEAIFNIPTITYGAWTGISLHEIAQVVLAAGIGGSEAMTFALLGKLGRVFLLIPLSIVLILYMRYKSHSSQVQQKIDIPYFLIGFIIMACINTFVPIPSLLMNIINVITTLCMLMAMVALGLNIVLKEVISKALKPFIVICITSICLSGVTLLVTSIMFK”, “failed”; under “MKSITTDELKNKLLESKPVQIVDVRTDEETAMGYIPNAKLIPMDTIPDNLNSFNKNEIYYIVCAGGVRSAKVVEYLEANGIDAVNVEGGMHAWGDEGLEIKSI”, “failed”.

For the origin of these results see a protein production outcome set (Wang et al. 2014).
